Experimental findings from patent publication US20170362301A1 (Janssen / Centocor, published 2017) are described below.

Where “and” joins values, the source holds several entries; their conditions need not be identical. Equal values may be shown once.

The target in experiment [1] is T1, EGFR on cells (A431, NCI-H292, NCI-H322, NCI-H441) (human, UniProt P00533 25-1210). The experiment is described as follows: cell-based or functional assay.
The target of experiment [2] is T1, EGFR on cells (A431, NCI-H292, …). Put plainly: cell-based or functional assay. The source holds these as a separate data set.
Experiment [3] addresses T2, EGFR (form in the assay not stated) (human, UniProt P00533 25-645, limits assumed). The experiment is described as follows: ELISA, NEM conjugate 10 nM.
Experiment [4] deals with T2, EGFR (form in the assay not stated). The experiment is described as follows: ELISA, NEM conjugate 100 nM.
For experiment [5] the target is unchanged. Put plainly: ELISA, NEM conjugate 500 nM.
The target of experiment [6] is T1, EGFR on cells (A431, NCI-H292, …). Put plainly: cell-based or functional assay. This is another data set of the same source.
Experiment [7] concerns the target c-Met on cells (NCI-H441, NCI-H292, U87-MG) (human, UniProt P08581 25-1390). The experiment is described as follows: cell-based or functional assay.

c-Met on cells (NCI-H441, NCI-H292, U87-MG), sequence (P08581 other isoform, or with tags, fused parts or gaps limits assumed): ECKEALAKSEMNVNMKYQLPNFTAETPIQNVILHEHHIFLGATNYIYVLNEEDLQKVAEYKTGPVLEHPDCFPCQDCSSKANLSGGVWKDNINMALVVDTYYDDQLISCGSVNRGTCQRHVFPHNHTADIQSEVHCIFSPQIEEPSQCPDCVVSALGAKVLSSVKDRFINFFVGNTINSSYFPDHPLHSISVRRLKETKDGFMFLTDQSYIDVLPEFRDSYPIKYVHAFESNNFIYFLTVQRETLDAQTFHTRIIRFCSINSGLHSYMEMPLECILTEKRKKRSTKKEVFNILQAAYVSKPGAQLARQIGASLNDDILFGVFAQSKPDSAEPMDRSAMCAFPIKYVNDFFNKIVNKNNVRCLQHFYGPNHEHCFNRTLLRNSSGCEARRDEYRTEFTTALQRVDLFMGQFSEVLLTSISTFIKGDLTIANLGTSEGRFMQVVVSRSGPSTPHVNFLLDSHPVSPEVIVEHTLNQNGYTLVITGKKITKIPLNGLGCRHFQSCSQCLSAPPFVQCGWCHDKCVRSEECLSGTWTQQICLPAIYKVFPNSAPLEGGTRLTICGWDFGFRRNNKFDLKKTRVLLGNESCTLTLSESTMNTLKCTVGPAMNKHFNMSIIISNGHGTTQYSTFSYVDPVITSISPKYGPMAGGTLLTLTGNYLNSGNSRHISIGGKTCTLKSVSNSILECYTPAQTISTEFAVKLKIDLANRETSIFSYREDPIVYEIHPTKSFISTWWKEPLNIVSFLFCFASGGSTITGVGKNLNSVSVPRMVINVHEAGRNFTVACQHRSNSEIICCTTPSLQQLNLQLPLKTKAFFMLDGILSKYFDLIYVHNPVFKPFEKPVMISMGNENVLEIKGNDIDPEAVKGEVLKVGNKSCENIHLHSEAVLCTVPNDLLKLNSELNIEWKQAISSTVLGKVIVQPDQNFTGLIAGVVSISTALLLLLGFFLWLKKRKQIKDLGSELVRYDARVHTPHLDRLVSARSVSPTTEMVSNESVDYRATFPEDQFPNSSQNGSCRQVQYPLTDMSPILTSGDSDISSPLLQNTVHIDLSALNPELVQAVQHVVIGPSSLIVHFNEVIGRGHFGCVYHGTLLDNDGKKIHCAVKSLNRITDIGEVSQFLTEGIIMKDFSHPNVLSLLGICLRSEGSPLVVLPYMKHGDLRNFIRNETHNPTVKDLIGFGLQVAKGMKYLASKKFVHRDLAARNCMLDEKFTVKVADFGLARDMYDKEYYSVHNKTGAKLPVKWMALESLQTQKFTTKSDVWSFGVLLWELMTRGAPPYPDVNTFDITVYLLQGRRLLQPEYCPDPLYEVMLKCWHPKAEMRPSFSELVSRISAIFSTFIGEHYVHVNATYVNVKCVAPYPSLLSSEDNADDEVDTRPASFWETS

B1: 83v2cy5-mal-PEG4-MMAE (designed binder)
chain: MLPAPKNLVVSEVTEDSARLSWDDPWAFYESFLIQYQESEKVGEAIVLTVPGSERSYDLTGLKPGTEYTVSIYGVHNVYKDTNMRGLPLSAIFTTGGHHHHHHC
modifications: mal-PEG4-MMAE on the cysteine
Regarding B1, the “IC50 A431 (nM), cell viability” value in experiment [1] was above 500 nM.

B2: 83v2cy5-mal-PEG4-VC-MMAF (designed binder)
chain: MLPAPKNLVVSEVTEDSARLSWDDPWAFYESFLIQYQESEKVGEAIVLTVPGSERSYDLTGLKPGTEYTVSIYGVHNVYKDTNMRGLPLSAIFTTGGHHHHHHC
modifications: mal-PEG4-VC-MMAF on the cysteine
Take B2: in experiment [1], the “IC50 A431 (nM), cell viability” value came to 1.6 nM; the “IC50 H1537 (nM), cell viability” value was 1.19 nM and 1.05 nM.

B3: 83v2cy5-mal-PEG4-MMAF (designed binder)
chain: MLPAPKNLVVSEVTEDSARLSWDDPWAFYESFLIQYQESEKVGEAIVLTVPGSERSYDLTGLKPGTEYTVSIYGVHNVYKDTNMRGLPLSAIFTTGGHHHHHHC
modifications: mal-PEG4-MMAF on the cysteine
For the molecule B3, the “IC50 A431 (nM), cell viability” value in experiment [1] was above 1000 nM.

B4: 83v2cy5-mal-PEG4-VK-MMAF (designed binder)
chain: MLPAPKNLVVSEVTEDSARLSWDDPWAFYESFLIQYQESEKVGEAIVLTVPGSERSYDLTGLKPGTEYTVSIYGVHNVYKDTNMRGLPLSAIFTTGGHHHHHHC
modifications: mal-PEG4-VK-MMAF on the cysteine
Regarding B4, the “IC50 A431 (nM), cell viability” value in experiment [1] is 3.9 nM.

B5: 83v2cy5-mal-PEG4-VK-MMAE (designed binder)
chain: MLPAPKNLVVSEVTEDSARLSWDDPWAFYESFLIQYQESEKVGEAIVLTVPGSERSYDLTGLKPGTEYTVSIYGVHNVYKDTNMRGLPLSAIFTTGGHHHHHHC
modifications: mal-PEG4-VK-MMAE on the cysteine
On to B5, for which the “IC50 A431 (nM), cell viability” value in experiment [1] came to 19.6 nM.

B6: 83v2cy5-mal-PEG4-VC-MMAE (designed binder)
chain: MLPAPKNLVVSEVTEDSARLSWDDPWAFYESFLIQYQESEKVGEAIVLTVPGSERSYDLTGLKPGTEYTVSIYGVHNVYKDTNMRGLPLSAIFTTGGHHHHHHC
modifications: mal-PEG4-VC-MMAE on the cysteine
With B6, in experiment [1], the “IC50 A431 (nM), cell viability” value was 315 nM.

B7: P53A1R5-17 (designed binder)
chain: LPAPKNLVVSEVTEDSLRLSWADPHGFYDSFLIQYQESEKVGEAINLTVPGSERSYDLTGLKPGTEYTVSIYGVHNVYKDTNMRGLPLSAEFTT
For the molecule B7, in experiment [2], the “Phospho-EGFR IC50, A431 cells” value was above 2500 nM.

B8: P54AR4-48 (designed binder)
chain: LPAPKNLVVSEVTEDSLRLSWDDPRGFYESFLIQYQESEKVGEAINLTVPGSERSYDLTGLKPGTEYTVSIYGVHNVYKDTNMRGLPLSAEFTT
For B8, the “Phospho-EGFR IC50, A431 cells” value in experiment [2] amounted to 170 nM.

B9: P54AR4-83v2 Y72C, NEM conjugate (designed binder)
chain: LPAPKNLVVSEVTEDSARLSWDDPWAFYESFLIQYQESEKVGEAIVLTVPGSERSYDLTGLKPGTEYTVSICGVHNVYKDTNMRGLPLSAIFTT
modifications: NEM on Cys 72
notes: His-tagged
As for B9, the entries for the “binding ratio vs parent P54AR4-83v2” value in experiment [3], in experiment [4] and in experiment [5] were 0.93 ratio, 1 ratio and 0.93 ratio, respectively.

B10: P54AR4-83v2 Y78C, NEM conjugate (designed binder)
chain: LPAPKNLVVSEVTEDSARLSWDDPWAFYESFLIQYQESEKVGEAIVLTVPGSERSYDLTGLKPGTEYTVSIYGVHNVCKDTNMRGLPLSAIFTT
modifications: NEM on Cys 78
notes: His-tagged
As for B10, the “binding ratio vs parent P54AR4-83v2” value in experiment [3] amounted to 0.31 ratio; in experiment [4], 0.63 ratio; in experiment [5], 0.68 ratio.

B11: P54AR4-83v2 Y28C, NEM conjugate (designed binder)
chain: LPAPKNLVVSEVTEDSARLSWDDPWAFCESFLIQYQESEKVGEAIVLTVPGSERSYDLTGLKPGTEYTVSIYGVHNVYKDTNMRGLPLSAIFTT
modifications: NEM on Cys 28
notes: His-tagged
For B11, the “binding ratio vs parent P54AR4-83v2” value is 0 ratio in experiment [3], 0.01 ratio in experiment [4] and 0.09 ratio in experiment [5].

B12: P54AR4-17 (designed binder)
chain: LPAPKNLVVSEVTEDSLRLSWTYDRDGYDSFLIQYQESEKVGEAINLTVPGSERSYDLTGLKPGTEYTVSIYGVHNVYKDTNMRGLPLSAEFTT
Turning to B12, in experiment [2], the “Phospho-EGFR IC50, A431 cells” value came out at 184 nM.

B13: P54AR4-83 (designed binder)
chain: LPAPKNLVVSEVTEDSLRLSWDDPWAFYESFLIQYQESEKVGEAINLTVPGSERSYDLTGLKPGTEYTVSIYGVHNVYKDTNMRGLPLSAEFTT
Take B13: the “Phospho-EGFR IC50, A431 cells” value in experiment [2] came out at 18 nM.

B14: P54AR4-73 (designed binder)
chain: LPAPKNLVVSEVTEDSLRLSWTWPYADLDSFLIQYQESEKVGEAINLTVPGSERSYDLTGLKPGTEYTVSIYGVHNVYKDTNMRGLPLSAEFTT
Regarding B14, the “Phospho-EGFR IC50, A431 cells” value in experiment [2] worked out at 141 nM.

B15: P54CR4-31 (designed binder)
chain: LPAPKNLVVSEVTEDSLRLSWTAPDAAFDSFLIQYQESEKVGEAINLTVPGSERSYDLTGLKPGTEYTVSIYGVLGSYVFEHDVMLPLSAEFTT
Regarding B15, the “Phospho-EGFR IC50, A431 cells” value in experiment [2] came to 179 nM.

B16: ECB38 (designed binder)
chain: MLPAPKNLVVSEVTEDSARLSWDDPWAFYESFLIQYQESEKVGEAIVLTVPGSERSYDLTGLKPGTEYTVSIYGVHNVYKDTNMRGLPLSAIFTTAPAPAPAPAPLPAPKNLVVSRVTEDSARLSWTAPDAAFDSFWIRYFEFLGSGEAIVLTVPGSERSYDLTGLKPGTEYVVNIMGVKGGKISPPLSAIFTTAPAPAPAPAPLAEAKVLANRELDKYGVSDYYKNLINNAKTVEGVKALLDEILAALP
Regarding B16, in experiment [6], the “EGF-stimulated EGFR phosphorylation in NCI-H292 cells IC50” value (“EGF-stimulated EGFR phosphorylation” for short) worked out at 2.3 nM. In experiment [7], the “HGF-stimulated c-Met phosphorylation in NCI-H292 cells IC50” value (from here on “HGF-stimulated c-Met phosphorylation”) was 1.3 nM.

B17: ECB147v6-PEG24 (designed binder)
chain: MLPAPKNLVVSEVTEDSARLSWDDPWAFYESFLIQYQESEKVGEAIVLTVPGSERSYDLTGLCPGTEYTVSIYGVHNVYKDTNMRGLPLSAIFTTAPAPAPAPAPLPAPKNLVVSRVTEDSARLSWTAPDAAFDSFWIRYFEFLGSGEAIVLTVPGSERSYDLTGLKPGTEYVVNIMSVKGGSISPPLSAIFTTAPAPAPAPAPLAEAKVLANRELDKYGVSDYYKNLINNAKTVEGVKALLDEILAALP
modifications: PEG24-maleimide on the engineered cysteine
For B17, in experiment [6], the “EGF-stimulated EGFR phosphorylation” value came to 1.4 nM. For the same molecule, the “HGF-stimulated c-Met phosphorylation” value in experiment [7] was determined as 0.4 nM.

B18: ECB147v3-PEG24 (designed binder)
chain: MLPAPKNLVVSEVTEDSARLSWDDPWAFYESFLIQYQESEKVGEAIVLTVPGSERSYDLTGLCPGTEYTVSIYGVHNVYKDTNMRGLPLSAIFTTAPCPAPAPAPLPAPKNLVVSRVTEDSARLSWTAPDAAFDSFWIRYFEFLGSGEAIVLTVPGSERSYDLTGLCPGTEYVVNIMSVKGGSISPPLSAIFTTAPCPAPAPAPLAEAKVLANRELDKYGVSDYYKNLINNAKTVEGVKALLDEILAALP
modifications: PEG24-maleimide on the engineered cysteines
Consider B18, for which, in experiment [6], the “EGF-stimulated EGFR phosphorylation” value came out at 1.6 nM. Further, the “HGF-stimulated c-Met phosphorylation” value in experiment [7] is 0.5 nM.

B19: ECB147v5-PEG24 (designed binder)
chain: MLPAPKNLVVSEVTEDSARLSWDDPWAFYESFLIQYQESEKVGEAIVLTVPGSERSYDLTGLCPGTEYTVSIYGVHNVYKDTNMRGLPLSAIFTTAPAPAPAPAPLPAPKNLVVSRVTEDSARLSWTAPDAAFDSFWIRYFEFLGSGEAIVLTVPGSERSYDLTGLCPGTEYVVNIMSVKGGSISPPLSAIFTTAPAPAPAPAPLAEAKVLANRELDKYGVSDYYKNLINNAKTVEGVKALLDEILAALP
modifications: PEG24-maleimide on the engineered cysteines
Turning to B19, the “EGF-stimulated EGFR phosphorylation” value in experiment [6] is 0.9 nM. In addition, in experiment [7], the “HGF-stimulated c-Met phosphorylation” value was 0.4 nM.
